In experiment [1] the target is AccS′ (soluble C-terminal autokinase module of the AccS sensor kinase), His6-tagged (Azoarcus sp. CIB). Briefly: AUC; sedimentation velocity, 20°C, 48,000 rpm, AccS′ 1 mg/ml, in the absence of DTT or with 0.1 mM DTT; dimer to monomers.
Experiment [2] shares this target. As to the kind of experiment: AUC; sedimentation velocity, 20°C, 48,000 rpm, AccS′ 1 mg/ml, with 0.1 mM DTT and 250 µM ubiquinone Q0; dimer to monomers.

With “AccS′ (soluble C-terminal autokinase module of the AccS sensor kinase), His6-tagged (domain or fragment)”, in experiment [1], the percent of the protein as dimer (in the absence of DTT) stood at 62%; the percent of the protein as dimer (with DTT) is 88%; the stoichiometry N – broadly, the number of molecules, sites or subunits per partner or assembly – came out at 2. In experiment [2], this substance yielded a percent of the protein as dimer (with DTT and Q0) of 37%; a stoichiometry N of 2.

The values are drawn from publication PMC6456745.
